{"source": "patent US10808024B2", "about": "“Antibodies against immunocomplexes comprising cyanobacterial cyclic peptide hepatotoxins” (priority 2015, dated 2020)", "molecules": {"B1": {"name": "SA51D12: variant-specific anti-IC antibody, MC-LR (antibody, V domains shown)", "VH": "EVQLLESGGGLVQPGGSLRLSCAASGFTFSSDVMHWVRQAPGKGLEWVSVISGYDGYTRYADSVKGRFTISRDNSKNTLYLQMNSLRAEDTAVYYCARGVPYLYGAYSFDYWGQGTLVTVSS", "VL": "EIVLTQSPGTLSLSPGERATLSCRASQSVSSSNLAWYQQKPGQAPRLLIYGASSRATGVPDRFSGSGSGTDFTLTISRLEPEDFAVYYCQQSSTPWTFGQGTKVEIKRT", "modifications": "Clone SA51D12; DOMAIN (31)..(35) CDR1; DOMAIN (50)..(66) CDR2; DOMAIN (99)..(111) CDR3; DOMAIN (24)..(35) CDR1; DOMAIN (51)..(57) CDR2; DOMAIN (90)..(98) CDR3"}, "B2": {"name": "SA51F6: group-specific anti-immunocomplex antibody (antibody, V domains shown)", "VH": "EVQLLESGGGLVQPGGSLRLSCAASGFTFSDYWMHWVRQAPGKGLEWVSEIWYSSGYTNYADSVKGRFTISRDNSKNTLYLQMNSLRAEDTAVYYCARDAFPWDVFDYWGQGTLVTVSS", "VL": "EIVLTQSPGTLSLSPGERATLSCRASQSVSSSYLAWYQQKPGQAPRLLIYGASSRATGVPDRFSGSGSGTDFTLTISRLEPEDFAVYYCQQSSSTPWTFGQGTKVEIKRT", "modifications": "Clone SA51F6; DOMAIN (31)..(35) CDR1; DOMAIN (50)..(66) CDR2; DOMAIN (99)..(108) CDR3; DOMAIN (24)..(35) CDR1; DOMAIN (51)..(57) CDR2; DOMAIN (90)..(98) CDR3"}, "B3": {"name": "SA51H4: MC-XR subgroup-specific anti-IC antibody (antibody, V domains shown)", "VH": "B2 VH with Y53P, S54Y, S55D, A100P, F101G, W103E, D104G", "VL": "B2 VL with Y33N, T95Y", "modifications": "Clone SA51H4; DOMAIN (31)..(35) CDR1; DOMAIN (50)..(66) CDR2; DOMAIN (99)..(108) CDR3; DOMAIN (24)..(35) CDR1; DOMAIN (51)..(57) CDR2; DOMAIN (90)..(98) CDR3"}, "B4": {"name": "SA57A3: subgroup specific anti-IC antibody with MC-LR preferring specificity (antibody, V domains shown)", "VH": "EVQLLESGGGLVQPGGSLRLSCAASGFTFSDYYMHWVRQAPGKGLEWVSYINTYDGNTDYADSVKGRFTISRDNSKNTLYLQMNSLRAEDTAVYYCARYYNPYTRRRVFDYWGQGTLVTVSS", "VL": "B2 VL with Y33N, T95Y", "modifications": "Clone SA57A3; DOMAIN (31)..(35) CDR1; DOMAIN (50)..(66) CDR2; DOMAIN (99)..(111) CDR3; DOMAIN (24)..(35) CDR1; DOMAIN (51)..(57) CDR2; DOMAIN (90)..(98) CDR3"}, "B5": {"name": "SA52B4: XR subgroup-specific anti-IC antibody (antibody, V domains shown)", "VH": "EVQLLESGGGLVQPGGSLRLSCAASGFTFSDYSMHWVRQAPGKGLEWVSEIWTNTGYTNYADSVKGRFTISRDNSKNTLYLQMNSLRAEDTAVYYCARESWEWFSIVFDYWGQGTLVTVSS", "VL": "B2 VL with Y33A, S92Y", "modifications": "Clone SA52B4; DISULFID (31)..(35) CDR1; DISULFID (50)..(66) CDR2; DISULFID (99)..(110) CDR3; DOMAIN (24)..(35) CDR1; DOMAIN (51)..(57) CDR2; DOMAIN (90)..(98) CDR3"}, "B6": {"name": "SA52C2: MC subgroup-specific anti-IC binder (antibody, V domains shown)", "VH": "EVQLLESGGGLVQPGGSLRLSCAASGFTFSSDVMHWVRQAPGKGLEWVSEIDPSDGTTNYADSVKGRFTISRDNSKNTLYLQMNSLRAEDTAVYYCARSYLDWPLDVWGQGTLVTVSS", "VL": "B2 VL with Y33N, S92M, S93H", "modifications": "Clone SA52C2; DOMAIN (31)..(35) CDR1; DOMAIN (50)..(66) CDR2; DOMAIN (99)..(107) CDR3; DOMAIN (24)..(35) CDR1; DOMAIN (51)..(57) CDR2; DOMAIN (90)..(98) CDR3"}, "B7": {"name": "SA41A5: MC-XR subgroup-specific anti-IC antibody (antibody, V domains shown)", "VH": "EVQLLESGGGLVQPGGSLRLSCAASGFTFSNYYMHWVRQAPGKGLEWVSEINYDGETDYADSVKGRFTISRDNSKNTLYLQMNSLRAEDTAVYYCARDGFWYGTAFDYWGQGTLVTVSS", "VL": "B2 VL with Y33A, S92M, S93H", "modifications": "Clone SA41A5; DOMAIN (31)..(35) CDR1; DOMAIN (50)..(66) CDR2; DOMAIN (99)..(108) CDR3; DOMAIN (24)..(35) CDR1; DOMAIN (51)..(57) CDR2; DOMAIN (90)..(98) CDR3"}, "B8": {"name": "SA60A1: subgroup specific anti-IC antibody with MC-LR preferring specificity (antibody, V domains shown)", "VH": "EVQLLESGGGLVQPGGSLRLSCAASGFTFSPYYMHWVRQAPGKGLEWVSYITPYDGYTDYADSVKGRFTISRDNSKNTLYLQMNSLRAEDTAVYYCARYSYVGSVRTRVFDYWGQGTLVTVSS", "VL": "B2 VL with Y33N, S93Y, T95Y", "modifications": "Clone SA60A1; DOMAIN (31)..(35) CDR1; DOMAIN (50)..(66) CDR2; DOMAIN (99)..(112) CDR3; DOMAIN (24)..(35) CDR1; DOMAIN (51)..(57) CDR2; DOMAIN (90)..(98) CDR3"}, "B9": {"name": "SA56D5: subgroup specific anti-IC antibody with MC-LR preferring specificity (antibody, V domains shown)", "VH": "EVQLLESGGGLVQPGGSLRLSCAASGFTFSDYYMHWVRQAPGKGLEWVSYIDGNGGYTDYADSVKGRFTISRDNSKNTLYLQMNSLRAEDTAVYYCARYWFDSSYKHRYFDYWGQGTLVTVSS", "VL": "B2 VL with Y33N, T95Y", "modifications": "Clone SA56D5; DOMAIN (31)..(35) CDR1; DOMAIN (50)..(66) CDR2; DOMAIN (99)..(112) CDR3; DOMAIN (24)..(35) CDR1; DOMAIN (51)..(57) CDR2; DOMAIN (90)..(98) CDR3"}, "B10": {"name": "SA56E7: variant-specific anti-IC antibody, MC-LR (antibody, V domains shown)", "VH": "EVQLLESGGGLVQPGGSLRLSCAASGFTFSRYYMHWVRQAPGKGLEWVSYIWPVDGETDYADSVKGRFTISRDNSKNTLYLQMNSLRAEDTAVYYCARYVYGNSVGRVFDYWGQGTLVTVSS", "VL": "B2 VL with Y33N, S93Y, T95Y", "modifications": "Clone SA56E7; DOMAIN (31)..(35) CDR1; DOMAIN (50)..(66) CDR2; DOMAIN (99)..(111) CDR3; DOMAIN (24)..(35) CDR1; DOMAIN (51)..(57) CDR2; DOMAIN (90)..(98) CDR3"}, "B11": {"name": "SA59G2: variant-specific anti-IC antibody, MC-LR (antibody, V domains shown)", "VH": "EVQLLESGGGLVQPGGSLRLSCAASGFTFSNYYMHWVRQAPGKGLEWVSYIDPVGGETYYADSVKGRFTISRDNSKNTLYLQMNSLRAEDTAVYYCARYYYWGYRAFDYWGQGTLVTVSS", "VL": "B2 VL with Y33A, T95L", "modifications": "Clone SA59G2; DOMAIN (31)..(35) CDR1; DOMAIN (51)..(66) CDR2; DOMAIN (99)..(109) CDR3; DOMAIN (24)..(35) CDR1; DOMAIN (51)..(57) CDR2; DOMAIN (90)..(98) CDR3"}, "B12": {"name": "SA33D5: XR subgroup-specific anti-IC antibody (antibody, V domains shown)", "VH": "EVQLLESGGGLVQPGGSLRLSCAASGFTFSSDVMHWVRQAPGKGLEWVSEIDPNDGSTRYADSVKGRFTISRDNSKNTLYLQMNSLRAEDTAVYYCAREYGAVSWSVVVFDYWGQGTLVTVSS", "VL": "B2 VL with Y33N, T95Y", "modifications": "Clone SA33D5; DOMAIN (31)..(35) CDR1; DOMAIN (50)..(66) CDR2; DOMAIN (99)..(112) CDR3; DOMAIN (24)..(35) CDR1; DOMAIN (51)..(57) CDR2; DOMAIN (90)..(98) CDR3"}, "B13": {"name": "SA41F2: XR subgroup-specific anti-IC antibody (antibody, V domains shown)", "VH": "EVQLLESGGGLVQPGGSLRLSCAASGFTFSNYGMHWVRQAPGKGLEWVSEIDYVDGNTYYADSVKGRFTISRDNSKNTLYLQMNSLRAEDTAVYYCAREVYAHGIAAFDYWGQGTLVTVSS", "VL": "B2 VL with Y33A, S92Y", "modifications": "Clone SA41F2; DOMAIN (31)..(35) CDR1; DOMAIN (50)..(66) CDR2; DOMAIN (99)..(110) CDR3; DOMAIN (24)..(35) CDR1; DOMAIN (51)..(57) CDR2; DOMAIN (90)..(98) CDR3"}, "B14": {"name": "SA42E10: MC subgroup-specific anti-IC binder (antibody, V domains shown)", "VH": "EVQLLESGGGLVQPGGSLRLSCAASGFTFSDYAMHWVRQAPGKGLEWVSSIIPYTGTTDYADSVKGRFTISRDNSKNTLYLQMNSLRAEDTAVYYCARTDDLIGHYDVYYYFDYWGQGTLVTVSS", "VL": "B2 VL with T95L", "modifications": "Clone SA42E10; DOMAIN (31)..(35) CDR1; DOMAIN (50)..(66) CDR2; DOMAIN (99)..(114) CDR3; DOMAIN (24)..(35) CDR1; DOMAIN (51)..(57) CDR2; DOMAIN (90)..(98) CDR3"}}, "note": "Where a chain is given by its changes, count along the chain named. Entries after “also recorded” stand apart in the source; their conditions may differ.", "data": [{"tested_on": "immunocomplexes of CCPH variants and anti-Adda mAb", "test": "Screening and cross-reactivity studies of anti-IC scFv-AP binders, specificity class", "type": "binding", "values": [{"molecule": "B1", "Specificity of anti-IC antibody (CCPH immunocomplexes recognized)": "recognize immunocomplexes comprising MC-LR; also recorded: MC-LR and MC-LZ specific"}, {"molecule": "B2", "Specificity of anti-IC antibody (CCPH immunocomplexes recognized)": "group-specific"}, {"molecule": "B3", "Specificity of anti-IC antibody (CCPH immunocomplexes recognized)": "specific for a subgroup MC-XR"}, {"molecule": "B4", "Specificity of anti-IC antibody (CCPH immunocomplexes recognized)": "MC-LR preferring specificity"}, {"molecule": "B5", "Specificity of anti-IC antibody (CCPH immunocomplexes recognized)": "specific for a subgroup XR"}, {"molecule": "B6", "Specificity of anti-IC antibody (CCPH immunocomplexes recognized)": "MC subgroup-specific"}, {"molecule": "B7", "Specificity of anti-IC antibody (CCPH immunocomplexes recognized)": "specific for a subgroup MC-XR"}, {"molecule": "B8", "Specificity of anti-IC antibody (CCPH immunocomplexes recognized)": "MC-LR preferring specificity"}, {"molecule": "B9", "Specificity of anti-IC antibody (CCPH immunocomplexes recognized)": "MC-LR preferring specificity"}, {"molecule": "B10", "Specificity of anti-IC antibody (CCPH immunocomplexes recognized)": "recognize immunocomplexes comprising MC-LR"}, {"molecule": "B11", "Specificity of anti-IC antibody (CCPH immunocomplexes recognized)": "recognize immunocomplexes comprising MC-LR"}, {"molecule": "B12", "Specificity of anti-IC antibody (CCPH immunocomplexes recognized)": "specific for a subgroup XR"}, {"molecule": "B13", "Specificity of anti-IC antibody (CCPH immunocomplexes recognized)": "specific for a subgroup XR"}, {"molecule": "B14", "Specificity of anti-IC antibody (CCPH immunocomplexes recognized)": "MC subgroup-specific"}]}]}
